Test results as given in article PMC7111020 (2007).
Each block holds one binder with its values, some of them ahead of it.

Columns and labels:
mTIM-1 = target: T1, mTIM-1 (Mus musculus, UniProt Q5QNS5); test: SPR
T1 chain: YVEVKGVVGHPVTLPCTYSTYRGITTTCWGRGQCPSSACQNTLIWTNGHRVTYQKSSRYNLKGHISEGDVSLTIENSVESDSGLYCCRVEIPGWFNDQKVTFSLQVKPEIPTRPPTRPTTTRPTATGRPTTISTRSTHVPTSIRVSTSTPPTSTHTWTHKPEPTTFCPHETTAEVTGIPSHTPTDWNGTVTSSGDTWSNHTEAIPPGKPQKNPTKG

[1] = target: the molecule itself; test: sedimentation equilibrium analytical ultracentrifugation

Kd (mTIM-1): ~0.6 µM
B1: mTIM-1 ECD (protein)
chain: T1 chain

B2: mTIM-2 20-129 (protein)
chain: ESHTAVQGLAGHPVTLPCIYSTHLGGIVPMCWGLGECRHSYCIRSLIWTNGYTVTHQRNSLYQLKGNISEGNVSLTIENTVVGDGGPYCCVVEIPGAFHFVDYMLEVKPE
Kd [1]: ~300 µM
